PMC3448007

Target: NKX2.5 homeodomain (C56S) (Homo sapiens, UniProt P52952 137-197, C193S)
Experiment: crystal structure

NKX2.5 homeodomain (C56S), sequence (P52952 137-197 C193S): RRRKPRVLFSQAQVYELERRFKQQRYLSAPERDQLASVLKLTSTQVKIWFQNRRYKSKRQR

B1: ANF-242 19-bp (dsDNA)
DNA 1: TGAAGTGGGGGCCACTTGA
DNA 2: TCAAGTGGCCCCCACTTCA
**Q.** Does B1 bind?
**A.** binds
